Usually IC50 stands for the concentration that inhibits the measured activity by half.

The source of these data is patent US20220296727A1, “Immunoconjugate” (DendroCyte BioTech Pty Ltd, priority 2019, published 2022).

One assay relates to HL-60. Particulars: comparator agents; cited from earlier work.
Another assay concerns THP-1. The note with it: comparator agents; cited from earlier work.
Another assay concerns U937. The note with it: comparator agents; cited from earlier work.
Another assay concerns the target human CD300f (human, UniProt Q8TDQ1 20-290). Put plainly: cell-based or functional assay.
In another assay the test system is dendritic cells. Put plainly: Activation marker expression on dendritic cells after LPS. The format is cell-based, human. The note with it: HLA-DR, CD11c, CD80, CD83; 200 pmol. Here is the method: The activity of DCR-2PBD on the upregulation of activation markers on DC was measured by incubating whole PBMC with DCR-2PBD or no antibody for […] before washing, followed by 12 hours of LPS stimulation. Control DC were not exposed to DCR-2PBD or LPS. Myeloid DC were gated out by excluding dead cells, Lin^+(CD3, CD20, CD19, CD56, CD14), then gating on HLA-DR^+ and CD11c^+ cells. The activation markers CD80 and CD83 were assessed via flow cytometry. The changes on activation were determined by comparing activated DC incubated with or without DCR-2PBD compared to inactivated DC.
PBMC were incubated in complete RPMI media with or without DCR-2-PBD (200 pmol). After 12 hours, washed cells were incubated for a further 12 hours with or without LPS then phenotyped for the expression of activation markers on DC populations. MoDC were derived from CD14+ monocytes as described previously (Fromm et al. J Leukoc Biol. 2020; 107(2):323-339). DCR-2-PBD or isotype-PBD (200 pmol) were added for 72 hours prior to enumeration of live cells by flow cytometry.

The next assay concerns HL-60 cells. The experiment in a line: Internalisation assay by flow cytometry. The format is cell-based. The procedure:
DCR-2 (IgG1), and as an isotype control, the anti-tetanus toxoid mAb, CMRF-81 (IgG1) which were both produced, purified and directly conjugated to phycoerythrin (PE) in house (Abadir et al. Mol Oncol. 2019; 13(10):2107-2120). Cells were incubated with DCR-2-PE or CMRF-81-PE (10 μg/ml) on ice for 20 min, washed to remove unbound mAb then incubated at 37° C./5% CO2 to allow internalisation for the indicated times.
After incubation, residual mAb remaining on the cell surface was detected with a secondary goat anti-mouse (GAM) IgG-AF488 antibody. Cells were fixed in 1% paraformaldehyde/PBS for flow cytometry analysis. The surface and total relative Mean Fluorescent Index (MFI) was calculated as the (MFI of binding antibody at time point−MFI of isotype control at time point) at 37° C./(MFI of binding antibody at time point−MFI of isotype control at time point) at 0° C. The percent internalised was assessed by 100−(relative MFI surface staining/relative MFI total staining). In immunofluorescent microscopy experiments cells were stained with DCR-2 then air-dried and fixed with 4% paraformaldehyde or incubated for 37° C. for 30 minutes then fixed. Rehydration was performed using 1% BSA/PBS prior to staining with GAM IgG-AF488 antibody and 18 μM DAPI (ThermoFisher).
For orientation: Flow cytometry measures light scatter and fluorescence of single cells or particles in a stream.

The test system of another assay is AML. Put plainly: NOS/SCID mouse model of AML. The format is in vivo. The note with it: unconjugated antibody alone.

Chain of human CD300f (Q8TDQ1 20-290): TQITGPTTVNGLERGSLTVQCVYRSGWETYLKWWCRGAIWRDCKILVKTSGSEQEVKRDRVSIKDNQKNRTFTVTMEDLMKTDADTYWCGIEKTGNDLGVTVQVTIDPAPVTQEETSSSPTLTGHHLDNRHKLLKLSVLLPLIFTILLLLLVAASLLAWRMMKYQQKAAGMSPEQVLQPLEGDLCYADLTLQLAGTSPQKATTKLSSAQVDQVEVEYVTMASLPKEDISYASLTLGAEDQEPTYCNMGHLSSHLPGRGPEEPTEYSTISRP

Consider `CS(=O)(=O)OCCCCOS(C)(=O)=O` [Busulfan], for which the IC50 in the assay with HL-60 is 354000 nM.

For `COc1cccc2c1C(=O)c1c(O)c3c(c(O)c1C2=O)C[C@@](O)(C(=O)CO)C[C@@H]3O[C@H]1C[C@H](N)[C@H](O)[C@H](C)O1` [Doxorubicin], the IC50 in the assay with HL-60 was 345000 nM.

Consider “Gemtuzumab-Ozogamicin: approved AML therapeutic which targets CD33”, for which the IC50 is 0.04 nM in the assay on THP-1, 0.127 nM with U937 and 0.0133 nM in the assay with HL-60.

B1: DCR-2-pyrrolobenzodiazepine (PBD) immunoconjugate (antibody, V domains shown)
VH: MESGGGLVQPGGPLKLSCAASGFGFSGSWMSWVRQAPGKGLEWIGQINPDSSTINYTPSLKDKFIISRDNAKNTLYLQINKVRSEDTALYYCARRGFFEGYSAWFAYW
VL: ILMTQTPKFLLVSAGDRVTITCKASQSVSNDVAWYQQKPGQSPSLLIYYASNRNTGVPDRFTGSGYETDFTFTISTVQAEDLAVYFCQQDYTSPWTFGGG
modifications: PBD dimer linked through the Cathepsin B-cleavable linker MA-PEG4-VA-PBD to native cysteines (reduced interchain disulfides); drug to antibody molar ratio 3.3; positions not given
Regarding B1, in the assay with human CD300f, the “IC50 (pM), cytotoxicity on HL-60 cells” value was 5.45 pM; the “IC50 (pM), cytotoxicity on THP-1 cells” value was determined as 29.9 pM; the “IC50 (pM), cytotoxicity on U937 cells” value was found to be 6.74 pM.

B2: DCR-2: murine IgG1 kappa monoclonal antibody binding the extracellular domain of CD300f; hybridoma CBA20160029 (antibody, V domains shown)
VH: MESGGGLVQPGGPLKLSCAASGFGFSGSWMSWVRQAPGKGLEWIGQINPDSSTINYTPSLKDKFIISRDNAKNTLYLQINKVRSEDTALYYCARRGFFEGYSAWFAYW
VL: ILMTQTPKFLLVSAGDRVTITCKASQSVSNDVAWYQQKPGQSPSLLIYYASNRNTGVPDRFTGSGYETDFTFTISTVQAEDLAVYFCQQDYTSPWTFGGG
Take B2: the “up-regulation of activation markers on dendritic cells after LPS” value in the assay on dendritic cells is “does not prevent upregulation of activation markers CD80 and CD83”. For the same molecule, the Internalisation result is reported as “significant” with HL-60 cells (30 minutes) and “greater than 50%” in the assay with HL-60 cells (180 minutes). In addition, the “survival and disease burden” value with AML is reported as “does not prolong survival or reduce disease burden”.
